Experimental data as given in patent US20140335573A1.

Biological target: native C. thermocellum cellulosome (purified from culture media of C. thermocellum ATCC 27405) (Clostridium thermocellum) (UniProt Q06851)
Assay: cell-based or functional assay

Sequence of UniProt Q06851 (Q06851 whole entry): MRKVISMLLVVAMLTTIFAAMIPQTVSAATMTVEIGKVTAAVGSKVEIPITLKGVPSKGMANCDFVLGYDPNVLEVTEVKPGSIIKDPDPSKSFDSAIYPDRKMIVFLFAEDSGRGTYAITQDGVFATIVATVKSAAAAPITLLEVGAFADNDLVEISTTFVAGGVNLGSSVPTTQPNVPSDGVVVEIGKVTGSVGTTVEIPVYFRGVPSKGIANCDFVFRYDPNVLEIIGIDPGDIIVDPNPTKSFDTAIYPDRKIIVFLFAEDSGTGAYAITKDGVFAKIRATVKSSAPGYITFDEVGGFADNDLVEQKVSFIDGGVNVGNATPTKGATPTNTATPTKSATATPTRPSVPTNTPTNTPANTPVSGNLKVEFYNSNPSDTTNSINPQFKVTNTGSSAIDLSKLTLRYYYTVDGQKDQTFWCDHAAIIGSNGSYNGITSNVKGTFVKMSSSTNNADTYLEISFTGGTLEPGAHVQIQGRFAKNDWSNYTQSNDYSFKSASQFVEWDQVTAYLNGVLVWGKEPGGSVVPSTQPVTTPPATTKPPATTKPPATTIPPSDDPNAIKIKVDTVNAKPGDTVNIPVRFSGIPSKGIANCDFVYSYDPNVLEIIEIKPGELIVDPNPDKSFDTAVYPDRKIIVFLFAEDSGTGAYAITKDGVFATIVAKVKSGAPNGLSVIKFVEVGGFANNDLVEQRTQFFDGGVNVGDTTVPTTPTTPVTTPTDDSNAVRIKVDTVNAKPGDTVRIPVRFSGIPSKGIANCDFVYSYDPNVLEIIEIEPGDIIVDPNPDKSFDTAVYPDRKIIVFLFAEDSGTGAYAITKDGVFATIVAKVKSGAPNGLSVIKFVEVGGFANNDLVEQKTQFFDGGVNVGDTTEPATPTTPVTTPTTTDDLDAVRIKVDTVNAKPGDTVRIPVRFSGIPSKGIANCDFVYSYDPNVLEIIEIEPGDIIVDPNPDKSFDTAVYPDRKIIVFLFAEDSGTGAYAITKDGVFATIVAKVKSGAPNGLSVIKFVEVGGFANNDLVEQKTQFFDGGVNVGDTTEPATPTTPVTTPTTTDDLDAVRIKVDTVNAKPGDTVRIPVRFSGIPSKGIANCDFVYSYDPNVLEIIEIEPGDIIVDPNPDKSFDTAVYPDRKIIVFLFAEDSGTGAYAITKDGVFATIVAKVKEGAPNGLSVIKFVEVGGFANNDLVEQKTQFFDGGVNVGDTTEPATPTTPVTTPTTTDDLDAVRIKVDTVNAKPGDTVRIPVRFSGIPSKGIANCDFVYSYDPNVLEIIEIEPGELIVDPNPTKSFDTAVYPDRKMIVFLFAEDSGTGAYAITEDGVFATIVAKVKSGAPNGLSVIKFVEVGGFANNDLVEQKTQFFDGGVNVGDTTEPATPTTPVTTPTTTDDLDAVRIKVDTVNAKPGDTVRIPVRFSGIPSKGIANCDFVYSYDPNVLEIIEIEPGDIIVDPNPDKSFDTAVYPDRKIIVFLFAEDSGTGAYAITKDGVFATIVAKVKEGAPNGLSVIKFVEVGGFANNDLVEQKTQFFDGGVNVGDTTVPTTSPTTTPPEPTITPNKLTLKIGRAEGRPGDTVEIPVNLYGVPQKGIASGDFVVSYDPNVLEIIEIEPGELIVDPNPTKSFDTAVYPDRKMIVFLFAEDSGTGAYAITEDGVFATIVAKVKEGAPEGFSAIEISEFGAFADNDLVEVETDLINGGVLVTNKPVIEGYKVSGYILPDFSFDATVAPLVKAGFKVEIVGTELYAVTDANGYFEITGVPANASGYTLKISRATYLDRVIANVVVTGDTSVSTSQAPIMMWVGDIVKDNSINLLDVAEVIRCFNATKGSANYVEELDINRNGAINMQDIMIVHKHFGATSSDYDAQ

BglA-CohII (C. thermocellum beta-glucosidase A fused to the type-II cohesin module of Orf2p) (enzyme)
hydrolysis of microcrystalline cellulose (soluble reducing sugars), fold over native cellulosome: 2.68 fold | hydrolysis of pre-treated switchgrass (soluble reducing sugars), fold over native cellulosome: 1.86 fold
